Reference: PMC3563353 (2012)
Square brackets hold non-standard residues; d marks the D form. Primed or numbered codes have the meaning given here. Side chains are listed from the residue outwards. * marks the point of attachment. IRDye800CW′ = near-infrared fluorescent dye (LiCor), attached as the maleimide; Cy5 = Cy5 near-infrared fluorescent dye; Butanoyl(4-Ph) = O=C(CCCc1ccccc1)*; Mpa = O=C(O)CCS

Legend:
MC1RL-800 = molecular target: T1, MC1RL-800; assay: competition binding with Eu-NDP-α-MSH on A375/hMC1R cells
T1 chain: {Butanoyl(4-Ph)}-H[dF]RWGK([Mpa-IRDye800CW′])-NH2

MC1RL-Cy5 = molecular target: T2, MC1RL-Cy5; assay: as above
T2 chain: {Butanoyl(4-Ph)}-H[dF]RWGK([Mpa-Cy5])-NH2

B1: MC1R (protein)
chain: MAVQGSQRRLLGSLNSTPTAIPQLGLAANQTGARCLEVSISDGLFLSLGLVSLVENALVVATIAKNRNLHSPMYCFICCLALSDLLVSGSNVLETAVILLLEAGALVARAAVLQQLDNVIDVITCSSMLSSLCFLGAIAVDRYISIFYALRYHSIVTLPRARRAVAAIWVASVVFSTLFIAYYDHVAVLLCLVVFFLAMLVLMAVLYVHMLARACQHAQGIARLHKRQRPVHQGFGLKGAVTLTILLGIFFLCWGPFFLHLTLIVLCPEHPTCGCIFKNFNLFLALIICNAIIDPLIYAFHSQELRRTLKEVLTCSW
**Q.** What does the source list for B1?
**A.** Ki (MC1RL-800): 0.4 nM; Ki (MC1RL-Cy5): 0.3 nM
